According to the supplement of paper PMC9112550, “Optimization of the antimicrobial peptide Bac7 by deep mutational scanning” (BMC Biology, 2022):

Each sequence was assayed on Escherichia coli TOP10 (assay: shrunken log2 fold change of peptide-encoding DNA abundance (4.5 h post-induction vs induction); higher = less antimicrobial activity (less host growth inhibition)). Conditions: time post-induction: 4.5 h; library: site-saturation at positions 5, 18, 19, 20.
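Note: peptides expressed intracellularly from a pBAD plasmid library in pooled LB shake-flask culture, induced with 0.3% L-arabinose, DNA abundance read by NGS, three biological replicates, DESeq2 with apeglm shrinkage.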

| Sequence | shrunken log2 fold change |
| --- | --- |
| RRIRVRPPRLPRPRPRPDGQPRP | -0.0901 |
| RRIRVRPPRLPRPRPRPDGVPRP | -0.0176 |
| RRIRVRPPRLPRPRPRPDIQPRP | 1.23 |
| RRIRVRPPRLPRPRPRPDKIPRP | -0.19 |
| RRIRVRPPRLPRPRPRPDKKPRP | 0.135 |
| RRIRVRPPRLPRPRPRPDMLPRP | -0.024 |
| RRIRVRPPRLPRPRPRPDMMPRP | 0.0644 |
| RRIRVRPPRLPRPRPRPDMYPRP | -0.0946 |
| RRIRVRPPRLPRPRPRPDNCPRP | -0.0588 |
| RRIRVRPPRLPRPRPRPDNIPRP | -0.714 |
| RRIRVRPPRLPRPRPRPDNQPRP | -0.0991 |
| RRIRVRPPRLPRPRPRPDNWPRP | -0.343 |
| RRIRVRPPRLPRPRPRPDPMPRP | -0.0769 |
| RRIRVRPPRLPRPRPRPDPNPRP | -0.231 |
| RRIRVRPPRLPRPRPRPDQEPRP | -0.00136 |
| RRIRVRPPRLPRPRPRPDTCPRP | -0.135 |
| RRIRVRPPRLPRPRPRPDTDPRP | -0.646 |
| RRIRVRPPRLPRPRPRPDVEPRP | 0.372 |
| RRIRVRPPRLPRPRPRPDVFPRP | -0.0779 |
| RRIRVRPPRLPRPRPRPDWAPRP | 0.133 |
| RRIRVRPPRLPRPRPRPDWNPRP | -0.343 |
| RRIRVRPPRLPRPRPRPEARPRP | 0.389 |
| RRIRVRPPRLPRPRPRPECPPRP | 0.0319 |
| RRIRVRPPRLPRPRPRPEDDPRP | -0.17 |
| RRIRVRPPRLPRPRPRPEDIPRP | -0.311 |

| Sequence | shrunken log2 fold change |
| --- | --- |
| RRIRVRPPRLPRPRPRPEEAPRP | 0.26 |
| RRIRVRPPRLPRPRPRPEEVPRP | 0.0207 |
| RRIRVRPPRLPRPRPRPEFDPRP | 0.197 |
| RRIRVRPPRLPRPRPRPEFEPRP | -0.0823 |
| RRIRVRPPRLPRPRPRPEFKPRP | 0.0262 |
| RRIRVRPPRLPRPRPRPEGQPRP | 0.197 |
| RRIRVRPPRLPRPRPRPEIGPRP | 0.0353 |
| RRIRVRPPRLPRPRPRPEIRPRP | 0.173 |
| RRIRVRPPRLPRPRPRPEKDPRP | 0.188 |
| RRIRVRPPRLPRPRPRPEKHPRP | -0.0527 |
| RRIRVRPPRLPRPRPRPEKLPRP | 0.0465 |
| RRIRVRPPRLPRPRPRPEKWPRP | 0.0257 |
| RRIRVRPPRLPRPRPRPEMRPRP | 0.562 |
| RRIRVRPPRLPRPRPRPEQSPRP | 0.362 |
| RRIRVRPPRLPRPRPRPEQYPRP | -0.394 |
| RRIRVRPPRLPRPRPRPERVPRP | -0.107 |
| RRIRVRPPRLPRPRPRPETIPRP | 0.0608 |
| RRIRVRPPRLPRPRPRPETPPRP | 1.14 |
| RRIRVRPPRLPRPRPRPEVMPRP | 0.344 |
| RRIRVRPPRLPRPRPRPEWNPRP | -0.272 |
| RRIRVRPPRLPRPRPRPEWSPRP | 0.267 |
| RRIRVRPPRLPRPRPRPEWYPRP | -0.419 |
| RRIRVRPPRLPRPRPRPEYAPRP | 0.111 |
| RRIRVRPPRLPRPRPRPFCEPRP | -0.197 |
| RRIRVRPPRLPRPRPRPFCYPRP | -0.133 |

| Sequence | shrunken log2 fold change |
| --- | --- |
| RRIRVRPPRLPRPRPRPFEEPRP | -0.000457 |
| RRIRVRPPRLPRPRPRPFEIPRP | -0.486 |
| RRIRVRPPRLPRPRPRPFEYPRP | -0.151 |
| RRIRVRPPRLPRPRPRPFFFPRP | 0.151 |
| RRIRVRPPRLPRPRPRPFFRPRP | 0.0448 |
| RRIRVRPPRLPRPRPRPFGIPRP | -0.371 |
| RRIRVRPPRLPRPRPRPFHSPRP | 0.0749 |
| RRIRVRPPRLPRPRPRPFHTPRP | -1.18 |
| RRIRVRPPRLPRPRPRPFHVPRP | -0.262 |
| RRIRVRPPRLPRPRPRPFIHPRP | -0.104 |
| RRIRVRPPRLPRPRPRPFIKPRP | -0.865 |
| RRIRVRPPRLPRPRPRPFISPRP | -0.11 |
| RRIRVRPPRLPRPRPRPFLKPRP | -0.602 |
| RRIRVRPPRLPRPRPRPFMHPRP | -0.156 |
| RRIRVRPPRLPRPRPRPFMRPRP | 0.184 |
| RRIRVRPPRLPRPRPRPFNYPRP | -0.975 |
| RRIRVRPPRLPRPRPRPFPRPRP | 0.0135 |
| RRIRVRPPRLPRPRPRPFQGPRP | -0.0641 |
| RRIRVRPPRLPRPRPRPFREPRP | 0.0848 |
| RRIRVRPPRLPRPRPRPFRMPRP | -0.247 |
| RRIRVRPPRLPRPRPRPFRQPRP | 0.0805 |
| RRIRVRPPRLPRPRPRPFSTPRP | -0.496 |
| RRIRVRPPRLPRPRPRPFSVPRP | -0.299 |
| RRIRVRPPRLPRPRPRPFWQPRP | 0.181 |
| RRIRVRPPRLPRPRPRPFYCPRP | -0.605 |
